The values that follow come from PMC6910952 (Nature Communications, 2019).

Values joined by “and” are separate entries in the source; they are usually repeats but may differ in a detail not shown here. Identical values can stand only once. No end group written: not given here.

Common to all, as to assay: fluorescence polarisation; fluorescence anisotropy; 1 nM FlAsH-labeled His6-SUMO-yUfd1 peptide, His6-yNpl4^113–580 in two-fold dilution series; 25 °C; 50 mM Tris-HCl pH 8.0, 100 mM NaCl, 5 mM β-mercaptoethanol, 0.1 g/L BSA
Holding throughout (conditions): both partners purified
(In general: In fluorescence polarisation assays a small probe gives low polarisation when free and higher when bound to something large.)

For one assay, the target named is T1, His6-yNpl4^113–580 Y424A (Saccharomyces cerevisiae, UniProt P33755 113-580, Y424A).
T1 construct: also called yNpl4 Y424A; source: E. coli Rosetta (DE3), purified (Ni-NTA, Resource Q); not shown: His6, N-terminal, kept
T1 sequence (looked up): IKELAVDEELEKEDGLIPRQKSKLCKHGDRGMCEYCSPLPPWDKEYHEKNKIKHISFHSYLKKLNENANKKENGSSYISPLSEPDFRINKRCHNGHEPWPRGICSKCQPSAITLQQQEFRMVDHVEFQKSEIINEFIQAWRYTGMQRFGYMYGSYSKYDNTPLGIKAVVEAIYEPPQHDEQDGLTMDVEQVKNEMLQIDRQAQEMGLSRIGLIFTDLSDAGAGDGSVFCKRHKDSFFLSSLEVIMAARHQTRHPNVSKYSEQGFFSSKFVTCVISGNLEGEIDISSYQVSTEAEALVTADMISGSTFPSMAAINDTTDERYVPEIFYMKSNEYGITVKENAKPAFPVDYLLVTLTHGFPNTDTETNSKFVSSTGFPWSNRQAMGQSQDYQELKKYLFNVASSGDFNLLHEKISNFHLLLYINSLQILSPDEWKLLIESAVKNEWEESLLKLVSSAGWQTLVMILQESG

The next assay concerns the target T2, His6-yNpl4^113–580 L353A (Saccharomyces cerevisiae, UniProt P33755 113-580, L353A).
T2 construct: also called yNpl4 L353A; source: E. coli Rosetta (DE3), purified (Ni-NTA, Resource Q); not shown: His6, N-terminal, kept
T2 sequence (looked up): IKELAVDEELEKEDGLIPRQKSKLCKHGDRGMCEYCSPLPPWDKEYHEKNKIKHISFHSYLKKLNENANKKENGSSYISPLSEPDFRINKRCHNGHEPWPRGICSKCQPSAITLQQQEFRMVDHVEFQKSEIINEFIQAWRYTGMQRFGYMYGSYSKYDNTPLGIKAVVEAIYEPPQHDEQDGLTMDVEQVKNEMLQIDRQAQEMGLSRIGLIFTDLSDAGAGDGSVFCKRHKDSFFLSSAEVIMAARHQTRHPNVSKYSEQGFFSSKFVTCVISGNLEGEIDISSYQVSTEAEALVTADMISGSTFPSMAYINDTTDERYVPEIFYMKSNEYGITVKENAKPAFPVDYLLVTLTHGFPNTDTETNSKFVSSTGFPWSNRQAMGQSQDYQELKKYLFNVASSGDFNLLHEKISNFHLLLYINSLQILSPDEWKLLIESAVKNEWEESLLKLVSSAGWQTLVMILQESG

The target of a further assay is T3, His6-yNpl4^113–580 (Saccharomyces cerevisiae, UniProt P33755 113-580).
T3 construct: codon-optimized synthetic cDNA; also called WT; WT #1; source: E. coli Rosetta (DE3), purified (Ni-NTA, Resource Q); also in lysate, mixed with cells expressing GST-yUfd1 for co-purification; not shown: His6, N-terminal, kept
T3 sequence (looked up): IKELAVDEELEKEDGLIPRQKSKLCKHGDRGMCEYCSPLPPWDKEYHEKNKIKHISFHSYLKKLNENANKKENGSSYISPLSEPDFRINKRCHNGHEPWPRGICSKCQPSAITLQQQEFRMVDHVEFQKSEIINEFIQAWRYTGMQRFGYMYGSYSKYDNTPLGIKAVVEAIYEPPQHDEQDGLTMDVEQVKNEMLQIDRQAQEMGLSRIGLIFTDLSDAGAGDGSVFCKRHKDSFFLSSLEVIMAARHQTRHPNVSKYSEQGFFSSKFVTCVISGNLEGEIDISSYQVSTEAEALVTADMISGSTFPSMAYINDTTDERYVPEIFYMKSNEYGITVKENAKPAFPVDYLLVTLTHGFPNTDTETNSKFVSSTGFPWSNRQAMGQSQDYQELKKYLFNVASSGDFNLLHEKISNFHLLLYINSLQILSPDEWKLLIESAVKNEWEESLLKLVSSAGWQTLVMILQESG

Another assay concerns the target T4, His6-yNpl4^113–580 R364A (Saccharomyces cerevisiae, UniProt P33755 113-580, R364A).
T4 construct: also called yNpl4 R364A; source: E. coli Rosetta (DE3), purified (Ni-NTA, Resource Q); not shown: His6, N-terminal, kept
T4 sequence (looked up): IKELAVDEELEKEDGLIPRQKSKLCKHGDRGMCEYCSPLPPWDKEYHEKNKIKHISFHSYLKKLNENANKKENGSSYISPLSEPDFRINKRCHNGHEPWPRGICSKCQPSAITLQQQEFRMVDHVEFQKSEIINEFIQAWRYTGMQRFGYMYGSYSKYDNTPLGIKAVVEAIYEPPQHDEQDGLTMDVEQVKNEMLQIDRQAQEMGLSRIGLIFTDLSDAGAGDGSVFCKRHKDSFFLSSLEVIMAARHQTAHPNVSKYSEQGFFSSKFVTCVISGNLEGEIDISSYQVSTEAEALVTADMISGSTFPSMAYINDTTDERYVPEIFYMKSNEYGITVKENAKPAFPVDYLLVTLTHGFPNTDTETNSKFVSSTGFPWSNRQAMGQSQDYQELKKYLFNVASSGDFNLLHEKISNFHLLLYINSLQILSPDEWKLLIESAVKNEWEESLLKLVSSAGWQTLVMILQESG

B1: FlAsH-labeled His6-SUMO-yUfd1^288–305-GWCCPGCC (peptide, UniProt P53044 288-305, looked up)
chain: {His6-SUMO}-EPAKLDLPEGQLFFGFPMGWCCPGCC
modifications: cysteine pairing not given here; also: FlAsH label bound to CCPGCC motif
notes: the assay methods print 280-305; also called yUfd1-FlAsH; yUfd1 WT; source: E. coli Rosetta (DE3) (pCold-SUMO), purified (Ni-NTA, Resource Q), labeled with FlAsH-EDT2; not shown: His6, N-terminal, kept; SUMO, N-terminal, kept
Take B1: the equilibrium dissociation constant (Kd) with His6-yNpl4^113–580 Y424A is 8.45 µM; with His6-yNpl4^113–580 L353A it was 1.38 µM; with His6-yNpl4^113–580 it was 0.0857 µM and 0.0994 µM; with His6-yNpl4^113–580 R364A it was 0.314 µM.

Usually Kd stands for the equilibrium constant for the complex coming apart. Read a low Kd as higher affinity.
